Measurements reported in the supplement of paper PMC12855868.

B1: library; numbered along this chain (parent)
chain: MAAAGGARLLRAASAVLGGPAGRWLHHAGSRAGSSGLLRNRGPGGSAEASRSLSVSARARSSSEDKITVHFINRDGETLTTKGKVGDSLLDVVVENNLDIDGFGACEGTLACSTCHLIFEDHIYEKLDAITDEENDMLDLAYGLTDRSRLGCQICLTKSMDNMTVRVPETVADARQSIDVGKTS

Variants of: B1
Experiment: scaled log2 fold change in cell abundance, elesclomol vs control (0 = silent mean, 1 = nonsense mean) (scaled log2 ratio); higher = higher viability under elesclomol (loss of FDX1 cuproptosis function)
Conditions: glucose 10 mM
Method: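 Deep mutational scan of full-length human FDX1: a pooled saturation-mutagenesis ORF library (every residue 2-184 mutated to all 19 amino acids plus stop, and silent codons where available) was expressed by lentivirus in FDX1-knockout ABC1 (14 days) or HEK293T (11 days) cells grown with elesclomol (ES) or DMSO control. Variant abundance came from ORF sequencing. The log2 fold change (ES vs control, mean of duplicates) was centred on the silent-variant mean (0) and scaled to the nonsense-variant mean (1). Higher values mean greater viability under ES, i.e. loss of FDX1 function in cuproptosis.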

[1] = with ABC1 FDX1 KO, elesclomol 5 nM, 14 days
[2] = with HEK293T FDX1 KO, elesclomol 40 nM, 11 days
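Note: variant abundance is its share of total variant reads in each endpoint sample, from next-generation sequencing of the integrated ORF PCR-amplified out of genomic DNA.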

Variant | scaled log2 fold change [1] | scaled log2 fold change [2]
R31S | 0.29 | 0.11
R31V | 0.267 | –
R31M | 0.66 | –
R31H | -0.603 | –
R31T | -0.552 | -0.717
R31F | -0.116 | 0.357
R31Q | 0.031 | 0.166
R31W | -0.118 | -0.246
R31I | 0.762 | –
R31A | 0.317 | –
R31E | -0.00724 | –
R31P | 0.561 | -0.0123
R31N | -0.000941 | –
R31G | 0.358 | -0.248
R31Y | 0.463 | -0.658
P43T | 0.0182 | -0.259
P43F | -0.0201 | 0.822
P43V | 0.149 | 0.888
P43M | 0.182 | 0.0394
P43G | 0.283 | 0.825
P43A | -0.0498 | 1.29
P43R | 0.273 | 0.259
P43H | 0.442 | -0.548
P43Y | 0.138 | 0.846

Variant | scaled log2 fold change [1] | scaled log2 fold change [2]
P43L | 0.34 | 1.08
P43K | 0.0332 | 0.445
P43W | -0.19 | 0.313
P43D | -0.289 | -0.259
P43E | 0.224 | 0.236
P43I | 0.392 | -0.356
P43S | -0.443 | -0.3
P43N | 0.14 | 1.24
P43C | -0.0655 | 0.841
P43Q | 0.274 | -0.32
S35D | 0.267 | 1.13
S35T | -0.263 | 0.526
S35F | -0.398 | 0.53
S35G | -0.212 | -1.33
S35L | -0.141 | -0.673
S35Q | 0.169 | 0.0163
S35A | -0.0215 | 0.327
S35W | -0.0127 | -0.259
S35K | 0.175 | 0.17
S35R | -0.768 | -0.669
S35H | -0.513 | 1.67
S35Y | -0.531 | -0.958
S35M | 0.309 | 0.0177
S35E | -0.0617 | -0.644

Variant | scaled log2 fold change [1] | scaled log2 fold change [2]
S35C | 0.0457 | 0.128
S35V | 0.123 | -0.55
S35N | 0.181 | -0.653
S35I | 0.293 | 0.132
S35P | -0.144 | –
G42C | 0.12 | 0.316
G42Y | 0.307 | –
G42M | 0.0351 | 0.622
G42R | 0.1 | -0.362
G42I | 0.277 | 0.513
G42T | 0.268 | 0.377
G42P | 0.28 | -0.219
G42S | 0.232 | -0.298
G42F | -0.0705 | -0.21
G42E | -0.302 | 0.67
G42V | 0.365 | -0.32
G42W | 0.29 | 1
G42H | 0.257 | -0.419
G42Q | 0.242 | -0.336
G42L | 0.249 | 0.513
G42K | 0.0974 | 0.00685
G42D | -0.168 | 0.162
G42A | -0.139 | 0.0969
G42N | 0.133 | -0.235

Variant | scaled log2 fold change [1] | scaled log2 fold change [2]
R39G | 0.577 | 0.061
R39I | -0.111 | 0.989
R39C | -0.483 | 0.689
R39D | -0.217 | 1.07
R39S | 0.489 | 0.0758
R39A | 0.0642 | -0.565
R39F | 0.0891 | -0.0588
R39L | -0.142 | -0.141
R39E | -0.217 | 0.936
R39Y | 0.0455 | -0.31
R39H | 0.0443 | -0.509
R39Q | -0.432 | 0.178
R39W | 0.0801 | 0.13
R39M | 0.188 | 0.344
R39P | -0.972 | -0.296
R39V | 0.374 | -0.208
R39N | -0.39 | -0.278
R39T | -0.117 | 0.0293
R39K | -0.687 | -0.451
S34V | 0.0515 | -1.09
S34R | -0.433 | 0.662
S34N | 0.0794 | 0.424
S34E | -0.124 | -0.639
S34P | -0.325 | -0.116

Variant | scaled log2 fold change [1] | scaled log2 fold change [2]
S34Q | -0.0397 | -0.168
S34A | -0.221 | -0.449
S34I | -0.128 | -0.488
S34Y | 0.029 | -0.188
S34T | 0.125 | -0.0688
S34L | 0.0704 | -0.513
S34C | 0.0357 | 0.188
S34G | 0.285 | -0.277
S34M | -0.108 | 0.216
S34D | 0.0928 | -0.389
S34F | 0.0028 | -0.301
S34K | 0.146 | -0.467
S34W | 0.0117 | 0.853
S34H | 0.251 | -0.957
A32N | -0.064 | -0.0431
A32I | 0.101 | 0.722
A32S | 0.0206 | -0.496
A32G | 0.242 | -0.0456
A32R | 0.589 | 1.44
A32F | 0.304 | 0.033
A32T | -0.266 | –
A32Y | 0.0969 | 0.822
A32C | -0.309 | -1.08
A32P | 0.626 | –

Variant | scaled log2 fold change [1] | scaled log2 fold change [2]
A32H | -0.58 | -0.0637
A32Q | 0.0849 | -0.338
A32D | 0.119 | –
A32W | -0.684 | –
A32V | -0.114 | –
A32E | 0.295 | -0.00588
G36C | -0.121 | 0.501
G36W | -0.615 | 1.33
G36T | 0.266 | 0.704
G36H | 0.443 | -1.19
G36F | -0.16 | -0.239
G36D | -0.0689 | 0.737
G36Q | -0.138 | 0.311
G36Y | 0.0493 | -0.0699
G36L | 0.19 | 0.873
G36M | 0.149 | -0.00494
G36S | 0.168 | -0.0207
G36R | -0.252 | 0.0429
G36N | 0.0293 | 0.187
G36E | 0.292 | 0.257
G36V | -0.491 | -0.262
G36K | -0.118 | -0.253
G36I | 0.0053 | -0.456
L37E | -0.0101 | -0.121

Variant | scaled log2 fold change [1] | scaled log2 fold change [2]
L37C | -0.0306 | –
L37P | 0.51 | 1.09
L37G | 0.613 | -0.248
L37M | 0.0458 | 0.0807
L37Q | -0.0502 | -0.659
L37F | 0.0336 | 0.00175
L37D | -0.0765 | -0.369
L37V | 0.412 | –
L37Y | 0.353 | 0.0859
L37T | 0.382 | 0.567
L37W | 0.235 | -0.0987
L37S | 0.557 | -0.131
L37H | -0.125 | -0.331
L37K | 0.0656 | -0.805
L37R | -0.0271 | 0.0954
N40V | 0.408 | -0.147
N40F | -0.01 | 0.266
N40L | -0.507 | 0.239
N40I | 0.554 | -0.704
N40D | -0.359 | -0.577
N40E | 0.118 | –
N40S | 0.213 | 0.0876
N40P | -0.752 | 0.374
N40M | -0.291 | 0.304

Variant | scaled log2 fold change [1] | scaled log2 fold change [2]
N40T | -0.748 | -0.708
N40Y | -0.412 | -0.381
N40W | -0.166 | -0.235
N40K | -0.0431 | 0.421
N40R | 0.387 | 0.0477
N40Q | -0.307 | 0.243
N40C | -0.214 | 1.09
G33E | 0.197 | -0.759
G33Q | -0.173 | -0.043
G33I | 0.161 | 0.713
G33Y | 0.0588 | 0.657
G33K | 0.0454 | 0.247
G33F | 0.0743 | 0.637
G33A | 0.0776 | 0.0796
G33R | -0.26 | -0.362
G33M | 0.0509 | -0.453
G33W | -0.0437 | 0.197
G33S | 0.208 | -0.0845
G33C | -0.0719 | 0.194
G33N | 0.0785 | 0.48
G33T | 0.154 | 0.176
G33L | -0.121 | -1.21
G33P | -0.0501 | 0.139
G33H | 0.23 | 0.469

Variant | scaled log2 fold change [1] | scaled log2 fold change [2]
G33V | 0.127 | 0.731
L38S | -0.172 | -0.0978
L38K | -0.0234 | 0.601
L38I | -0.615 | 0.0108
L38C | -0.631 | 0.0841
L38R | 0.333 | 1.23
L38W | -0.0179 | –
L38F | 0.294 | 0.135
L38A | -0.113 | –
L38Q | -0.878 | -0.206
L38P | -0.12 | 0.667
L38D | 0.132 | -0.187
L38G | -0.74 | –
L38V | -0.109 | –
L38E | 0.019 | 0.931
L38Y | -0.0523 | -0.184
L38T | 0.403 | 0.953
L38M | 0.492 | 1.02
L38H | 0.153 | 0.35
L38N | 0.377 | 0.121
G44H | -0.319 | –
G44E | 0.197 | 1.12
G44F | -0.255 | -0.00392
G44C | -0.366 | 0.858

Variant | scaled log2 fold change [1] | scaled log2 fold change [2]
G44D | -0.0132 | -0.461
G44I | 0.034 | 0.323
G44A | 0.246 | 2.06
R41A | 0.281 | 0.851
R41F | 0.347 | -0.469
R41Y | -0.195 | -0.051
R41G | -0.751 | 0.252
R41D | 0.137 | -0.209
R41K | 0.264 | -0.114
R41S | -0.22 | 0.473
R41M | 0.173 | 0.0788
R41W | 0.107 | 0.227
R41I | -0.144 | 0.109
R41E | 0.0687 | -0.798
R41H | 0.145 | -0.535
R41N | 0.199 | -0.371
R41Q | -0.31 | 0.698
R41L | 0.167 | 0.278
R41C | -0.0654 | -0.255
R41V | -0.196 | -0.0931
R41P | -0.0791 | -0.655
R41T | 0.311 | 0.274
